Assay results as given in patent US20130059388.

Legend:
[1] = test system: MAPRE3 ZFN of pair 31/32 (second) (synthetic); experiment: cell_activity; conditions: Cel-1 efficiency of ZFN pair 31/32; no productive tag integration
[2] = test system: MAPRE3 ZFN of pair 31/32 (first) (synthetic); experiment: cell_activity; conditions: Cel-1 efficiency of ZFN pair 31/32; no productive tag integration

| Sequence | activity [1] | activity [2] |
| --- | --- | --- |
| AGGAAGGATTCGCAC (double strand) [MAPRE3 half-site 2] | 21% |  |
| TTCCTCTCTCTCCCAC (double strand) [MAPRE3 half-site 1] |  | 21% |
